Four molecules from article PMC8809517, “Cofactor-independent RNA editing by a synthetic S-type PPR protein” can be followed below.

Where a chain is given by its changes, count along the chain named.

Test in all cases: high-throughput RNA pulldown from lysate on Ni-NTA beads; HRP: 50 mM Tris pH 8, 150 mM NaCl, 1 mM beta-mercaptoethanol, 50 ug/ml BSA, 3 ug/ml yeast RNA, 0.5% heparin; ITC and FP: Tris pH 8, 200 mM KCl, 5% glycerol; MST: 50 mM Tris pH 8, 200 mM NaCl, 1 mM DTT, BSA, heparin, 0.05% Tween 20
Holding throughout (details): tags: N-terminal His-eGFP

For series [1], the target named is T1, GFP-9S library array, motif 4 ND D124S (synthetic construct, D124S).
T1 chain: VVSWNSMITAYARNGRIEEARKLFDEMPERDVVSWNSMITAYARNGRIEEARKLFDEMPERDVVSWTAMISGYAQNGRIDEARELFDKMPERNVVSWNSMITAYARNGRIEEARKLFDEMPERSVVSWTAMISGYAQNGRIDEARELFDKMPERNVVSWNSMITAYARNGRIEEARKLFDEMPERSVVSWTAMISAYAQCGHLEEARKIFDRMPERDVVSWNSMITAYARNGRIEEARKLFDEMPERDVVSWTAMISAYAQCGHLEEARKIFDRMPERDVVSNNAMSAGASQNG

Series [2] has as its target T2, GFP-9S library array, motif 4 ND N98G;D124R (synthetic construct, N98G;D124R).
T2 chain: T1 chain with N98G, S124R

Series [3] deals with T3, GFP-9S library array, motif 4 ND D124T (synthetic construct, D124T).
T3 chain: T1 chain with S124T

Series [4] addresses T4, GFP-9S library array, motif 4 ND N98S;D124I (synthetic construct, N98S;D124I).
T4 chain: T1 chain with N98S, S124I

The target in series [5] is T5, GFP-9S library array, motif 4 ND N98C;D124H (synthetic construct, N98C;D124H).
T5 chain: T1 chain with N98C, S124H

What is called Kd is the free concentration of one partner at which half of the binding sites on the other are occupied at equilibrium, for simple one-to-one binding. AUUACACGUGA (ssRNA) [Cy5-rpoA]: the dissociation constant Kd in series [1] (label: 5' Cy5) came out at 2.01 nM; in series [2] (label: 5' Cy5), 100 nM; in series [3] (label: 5' Cy5), 8.35 nM; in series [4] (label: 5' Cy5) it was 74.7 nM; in series [5] (label: 5' Cy5), 124 nM.
AUUAAACGUGA (ssRNA) [IR-rpoA-A]: the Kd in series [1] (label: 5' IRDye 800CW) worked out at 162 nM; in series [2] (label: 5' IRDye 800CW), 158 nM; in series [3] (label: 5' IRDye 800CW), 215 nM; in series [4] (label: 5' IRDye 800CW), 113 nM; in series [5] (label: 5' IRDye 800CW), 25.4 nM.
Turning to AUUAGACGUGA (ssRNA) [Cy5-rpoA-G], the Kd was 522 nM in series [1] (label: 5' Cy5); 115 nM in series [2] (label: 5' Cy5); 291 nM in series [3] (label: 5' Cy5); 71.4 nM in series [4] (label: 5' Cy5); 57.7 nM in series [5] (label: 5' Cy5).
With AUUAUACGUGA (ssRNA) [IR-rpoA-U], the Kd was determined as 5.07 nM in series [1] (label: 5' IRDye 800CW); 116 nM in series [2] (label: 5' IRDye 800CW); 24.6 nM in series [3] (label: 5' IRDye 800CW); 152 nM in series [4] (label: 5' IRDye 800CW); 152 nM in series [5] (label: 5' IRDye 800CW).
